B1: 命名为1D12的兔重组单克隆抗体 (rabbit recombinant monoclonal antibody 1D12) (antibody, V domains shown)
VH: QSVEESGGRLVTPGTPLTLTCTVSGFSLSSYGMIWVRQAPGKGLEWIGSINTDGSTYYATWAKGRFTISRTSTTVDLKITSPTTEDTATYFCARGYPGYITDSYYYFNIWGPGTLVTVS
VL: DVVLTQTPASVEAAVRGTVTIKCQASQSISSYLSWYQQKPGQPPKLLIYRASTLESGVPSRFKGSGSGTEFTLTITDLECADAATYYCQCTYGTFHSSGYGFGGGTGVVVK
B2: 命名为2B3的兔重组单克隆抗体 (rabbit recombinant monoclonal antibody 2B3) (antibody, V domains shown)
VH: QSVEESGGRLVTPGTPLTLTCTVSGFSLSAYAMGWFRQAPGKGLEYIGIISDSASTFYATWAKGRFTISRTSSTMVDLKMTSPTTEDTATYFCARAYYVVDNDSPFNMWGPGTVVTVS
VL: VMTQTPSSVSAAVGGTVTINCQASENIYSSLAWYQQKPGQPPKLLIYAASKLESGVPSRFKGSRSETDFTLTISDLECDDAATYYCQSYYDTGRASFAFGGGTEVVVK
B3: 命名为1H2的兔重组单克隆抗体 (rabbit recombinant monoclonal antibody 1H2) (antibody, V domains shown)
VH: QSVEESRGGLIKPTDTLTLTCTVSGFSLSNYGVSWVRQAPGNGLEYIGFIGTIGATLYANWAKSRSTITRNTNLNTVTLKMTSLTAADTATYFCARGIYGDIYVYAFDIWGPGTLVTVSS
VL: AAVLTQTPSPVSAAVGGTVTISCQASQSVRDNGDLAWYQQKPGQPPKLLIYDVSALASGVPSRFKGRGSGTQFTLTISDLECDDAATYSCAGGYIAGSDRWVFGGGTEVVVK

Experiments:
[1] = target: T1, CS1 FC融合标签蛋白 (CS1 Fc fusion tag protein, expressed in 293F cells) (UniProt Q9NQ25); experiment: ELISA, CS1 protein coated at 1 ug/ml, purified antibody at dilution 25K
T1 sequence (looked up): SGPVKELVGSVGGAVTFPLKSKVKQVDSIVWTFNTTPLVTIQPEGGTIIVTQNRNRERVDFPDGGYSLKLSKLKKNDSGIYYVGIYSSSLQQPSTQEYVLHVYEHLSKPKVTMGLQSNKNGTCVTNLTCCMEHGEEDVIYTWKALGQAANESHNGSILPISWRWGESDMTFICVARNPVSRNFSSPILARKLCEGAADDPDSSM

[2] = target: T1, CS1 FC融合标签蛋白 (CS1 Fc fusion tag protein, expressed in 293F cells); experiment: ELISA, CS1 protein coated at 1 ug/ml, purified antibody at dilution 125K
[3] = target: T1, CS1 FC融合标签蛋白 (CS1 Fc fusion tag protein, expressed in 293F cells); experiment: ELISA, CS1 protein coated at 1 ug/ml, purified antibody at dilution 625K
[4] = target: T1, CS1 FC融合标签蛋白 (CS1 Fc fusion tag protein, expressed in 293F cells); experiment: ELISA, CS1 protein coated at 1 ug/ml, purified antibody at dilution 3125k
[5] = target: T1, CS1 FC融合标签蛋白 (CS1 Fc fusion tag protein, expressed in 293F cells); experiment: ELISA, CS1 protein coated at 1 ug/ml, purified antibody at dilution 15625k
[6] = target: T1, CS1 FC融合标签蛋白 (CS1 Fc fusion tag protein, expressed in 293F cells); experiment: indirect ELISA, CS1 protein coated at 1 ug/ml, B cell culture supernatant, goat anti-rabbit IgG-HRP
[7] = target: T1, CS1 FC融合标签蛋白 (CS1 Fc fusion tag protein, expressed in 293F cells); experiment: ELISA, CS1 protein coated at 1 ug/ml, purified antibody at dilution 5K
[8] = target: T1, CS1 FC融合标签蛋白 (CS1 Fc fusion tag protein, expressed in 293F cells); experiment: ELISA, CS1 protein coated at 1 ug/ml, purified antibody at dilution 1K

Row | Binder | ELISA OD [1] | ELISA OD [2] | ELISA OD [3] | ELISA OD [4] | ELISA OD [5] | OD450值 [6] [OD450] | ELISA OD [7] | ELISA OD [8]
1 | B1 | 3.45 | 2.02 | 0.522 | 0.209 | 0.124 | 2.13 |  | 
2 | B2 | 2.91 | 0.98 | 0.276 | 0.161 | 0.108 | 2.03 | 3.95 | 
3 | B3 | 2.39 | 1.18 | 0.32 | 0.153 | 0.11 | 1.52 | 3.83 | 3.95
